Laboratory results reported in US20220031841A1 (ABSCI, published 2022).

Assays:
Experiment in all cases: HuProt protein array, F635 z-score
[1] = biological target: T1, Src homology 2 (SH2) domain containing inositol polyphosphate 5-phosphatase 1 (SHIP1) (human, UniProt Q92835 1-1189)
T1 construct: The array carries full-length recombinant human proteins expressed in S. cerevisiae, purified and printed on glass slides; also called INPP5D; INPP5D/SHIP1
T1 sequence: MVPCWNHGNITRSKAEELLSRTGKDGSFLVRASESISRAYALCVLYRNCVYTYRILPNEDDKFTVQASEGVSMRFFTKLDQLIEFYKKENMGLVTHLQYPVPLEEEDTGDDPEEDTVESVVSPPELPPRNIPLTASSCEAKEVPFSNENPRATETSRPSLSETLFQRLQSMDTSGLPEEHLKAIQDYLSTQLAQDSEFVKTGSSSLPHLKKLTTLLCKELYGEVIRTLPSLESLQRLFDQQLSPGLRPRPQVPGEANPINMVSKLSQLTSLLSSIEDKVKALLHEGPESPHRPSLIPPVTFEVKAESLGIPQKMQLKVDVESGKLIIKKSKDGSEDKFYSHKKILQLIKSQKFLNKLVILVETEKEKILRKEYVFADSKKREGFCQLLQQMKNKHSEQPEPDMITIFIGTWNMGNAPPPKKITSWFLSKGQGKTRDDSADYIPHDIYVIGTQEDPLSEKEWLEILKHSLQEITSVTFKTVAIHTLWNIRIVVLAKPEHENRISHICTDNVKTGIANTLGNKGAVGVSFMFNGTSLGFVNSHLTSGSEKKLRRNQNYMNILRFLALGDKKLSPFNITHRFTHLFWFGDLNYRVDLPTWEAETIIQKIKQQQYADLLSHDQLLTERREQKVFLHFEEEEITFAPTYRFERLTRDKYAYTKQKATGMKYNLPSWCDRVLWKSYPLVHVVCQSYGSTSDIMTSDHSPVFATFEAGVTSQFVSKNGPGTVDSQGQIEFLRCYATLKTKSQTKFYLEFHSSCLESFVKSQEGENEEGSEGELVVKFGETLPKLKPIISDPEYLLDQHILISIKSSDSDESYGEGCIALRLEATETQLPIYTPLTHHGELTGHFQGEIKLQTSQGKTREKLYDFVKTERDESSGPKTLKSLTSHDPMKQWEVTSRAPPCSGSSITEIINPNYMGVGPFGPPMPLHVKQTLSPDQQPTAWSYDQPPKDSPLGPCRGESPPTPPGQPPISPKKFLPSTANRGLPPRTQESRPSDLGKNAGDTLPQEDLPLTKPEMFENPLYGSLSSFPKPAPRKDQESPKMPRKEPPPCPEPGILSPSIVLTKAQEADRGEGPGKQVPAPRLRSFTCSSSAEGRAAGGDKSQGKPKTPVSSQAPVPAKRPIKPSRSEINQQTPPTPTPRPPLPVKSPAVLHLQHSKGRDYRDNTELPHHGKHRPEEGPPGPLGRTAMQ
Description: (§1) Large scale protein arrays are versatile and sensitive platforms for antibody specificity evaluation. They can be used for the evaluation of protein binding or affinity reagents that are widely employed in research and clinical applications. The microarray used in our target identification experiment provides the largest number of unique, full-length, individually purified human proteins on a single microscope slide. This allows thousands of interactions to be profiled in a high-throughput manner. The hill-length recombinant proteins are expressed in the yeast S. cerevisiae, purified, and printed on glass slides in duplicate along with a set of control proteins (GST, BSA, histones, IgG, etc.). Such microarray is not restricted to a particular type of surface coating, although the default is glass coated with ultra-thin nitrocellulose film for the non-covalent, yet irreversible, capture of active proteins to the surface. Fourteen Protein arrays were used for the antibody cross-reactivity assay of the samples. The antibodies were probed at […] on the arrays and incubated at room temperature for 1 hour. After probing, the arrays were washed according to the protocol and probed with Alexa-647-anti-human IgG […] specific secondary antibodies under conditions optimized for signal detection. The antibody-antigen binding score was calculated for each protein represented on the array and expressed as z-scores.
(§2) Antibody samples are probed on native HuProt arrays at 1 μg/ml and incubated at room temperature for 1 hour. After probing, the arrays are washed according to the standard protocols and probed with Alexa-647-anti-human IgG Fc gamma specific secondary antibodies under conditions optimized for signal detection.
(§3) Z score is the average Z score of the duplicate spots of a given protein (each protein is printed in duplicate on a HuProt™ array). The Z score of each spot on a given array is calculated according to the equation: […]

[2] = biological target: T2, Chromobox protein homolog 1 (CBX1) (human, UniProt P83916 1-185)
T2 construct: The array carries full-length recombinant human proteins expressed in S. cerevisiae; also called Human Chromobox protein homolog 1
Description: as §1, §2, §3

[3] = biological target: T3, Chromobox protein homolog 5 (CBX5) (human, UniProt P45973 1-191)
T3 construct: The array carries full-length recombinant human proteins expressed in S. cerevisiae; also called Human Chromobox protein homolog 5
Description: as §1, §2, §3

[4] = biological target: T4, Cancer/testis antigen 1 (CTAG1A) (human, UniProt P78358 1-180)
T4 construct: The array carries full-length recombinant human proteins expressed in S. cerevisiae; also called NY-ESO-1; Cancer/Testis Antigen 1A
Description: as §1, §2, §3

[5] = biological target: T5, Melanoma-associated antigen 3 (MAGE-A3) (human, UniProt P43357 1-314)
T5 construct: The array carries full-length recombinant human proteins expressed in S. cerevisiae; also called Human MAGE-A3
Description: as §1, §2, §3

[6] = biological target: T6, Inorganic pyrophosphatase (PPA1) (human, UniProt Q15181 2-289)
T6 construct: The array carries full-length recombinant human proteins expressed in S. cerevisiae; also called Human PPA1
T6 sequence: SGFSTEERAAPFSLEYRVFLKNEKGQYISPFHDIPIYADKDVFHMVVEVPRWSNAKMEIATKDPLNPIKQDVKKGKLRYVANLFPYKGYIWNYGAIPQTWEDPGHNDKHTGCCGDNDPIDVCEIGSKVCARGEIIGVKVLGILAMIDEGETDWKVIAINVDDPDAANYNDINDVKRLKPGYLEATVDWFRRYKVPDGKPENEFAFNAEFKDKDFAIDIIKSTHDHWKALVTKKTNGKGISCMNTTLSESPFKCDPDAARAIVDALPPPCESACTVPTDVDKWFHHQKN
Description: as §1, §2, §3

[7] = biological target: T7, Alpha-taxilin (TXLNA) also known as interleukin-14A (human, UniProt P40222 1-546)
T7 construct: The array carries full-length recombinant human proteins expressed in S. cerevisiae; also called IL-14A; TXLNA/IL-14A
Description: as §1, §2, §3

Measured: binding result

T7 sequence (P40222 whole entry): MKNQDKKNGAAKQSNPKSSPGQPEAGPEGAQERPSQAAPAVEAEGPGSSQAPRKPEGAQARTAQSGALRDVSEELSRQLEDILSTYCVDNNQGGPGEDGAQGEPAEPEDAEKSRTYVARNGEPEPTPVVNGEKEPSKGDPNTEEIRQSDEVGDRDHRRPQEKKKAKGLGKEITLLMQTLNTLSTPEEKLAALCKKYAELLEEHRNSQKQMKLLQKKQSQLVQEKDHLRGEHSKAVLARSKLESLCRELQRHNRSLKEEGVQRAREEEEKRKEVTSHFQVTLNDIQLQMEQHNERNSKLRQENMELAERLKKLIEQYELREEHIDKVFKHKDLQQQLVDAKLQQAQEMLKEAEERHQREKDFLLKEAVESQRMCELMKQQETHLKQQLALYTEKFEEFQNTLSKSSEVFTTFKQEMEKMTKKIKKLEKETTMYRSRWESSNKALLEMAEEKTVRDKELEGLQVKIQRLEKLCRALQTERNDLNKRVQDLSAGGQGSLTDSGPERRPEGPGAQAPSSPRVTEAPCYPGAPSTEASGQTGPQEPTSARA
T3 sequence (P45973 whole entry): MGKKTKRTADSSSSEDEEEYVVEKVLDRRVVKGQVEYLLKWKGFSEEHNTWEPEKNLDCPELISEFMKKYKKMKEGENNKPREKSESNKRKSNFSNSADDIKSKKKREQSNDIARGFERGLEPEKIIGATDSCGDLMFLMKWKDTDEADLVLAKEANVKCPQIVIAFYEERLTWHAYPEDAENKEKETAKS
T4 sequence (P78358 whole entry): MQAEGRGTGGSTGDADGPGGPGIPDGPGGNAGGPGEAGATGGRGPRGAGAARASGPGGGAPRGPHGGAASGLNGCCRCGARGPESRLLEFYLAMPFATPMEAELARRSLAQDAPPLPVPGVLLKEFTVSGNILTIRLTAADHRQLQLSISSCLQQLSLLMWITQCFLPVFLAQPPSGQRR
T5 sequence (P43357 whole entry): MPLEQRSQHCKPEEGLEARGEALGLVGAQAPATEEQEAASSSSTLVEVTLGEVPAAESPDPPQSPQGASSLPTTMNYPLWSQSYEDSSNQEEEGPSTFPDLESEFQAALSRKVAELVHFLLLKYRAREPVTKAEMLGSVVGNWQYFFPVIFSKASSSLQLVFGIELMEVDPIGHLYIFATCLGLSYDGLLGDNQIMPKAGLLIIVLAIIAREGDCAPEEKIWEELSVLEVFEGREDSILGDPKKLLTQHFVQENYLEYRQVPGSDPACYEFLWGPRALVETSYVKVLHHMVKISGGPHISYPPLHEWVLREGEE
T2 sequence (P83916 whole entry): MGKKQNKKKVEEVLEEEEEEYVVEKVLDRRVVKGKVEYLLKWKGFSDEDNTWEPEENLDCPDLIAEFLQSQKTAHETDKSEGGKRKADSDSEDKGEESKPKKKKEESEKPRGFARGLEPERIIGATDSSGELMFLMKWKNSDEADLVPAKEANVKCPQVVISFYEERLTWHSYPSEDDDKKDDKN

B1: TMEL1002 (antibody, V domains shown)
VH: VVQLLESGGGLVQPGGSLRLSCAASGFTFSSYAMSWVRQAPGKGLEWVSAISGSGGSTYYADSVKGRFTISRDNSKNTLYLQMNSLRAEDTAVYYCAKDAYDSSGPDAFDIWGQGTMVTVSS
VL: ASALTQPASVSGSPGQSITISCTGTSSDVGDYNYVSWYQQHPGKAPKLMIYDVSNRPSGVSNRFSGSKSGNTASLTISGLQAEDEADYYCSSYTSSSTLVFGGGTKLTVLG
no binding (tested: 1 µg/ml): [1] | [2] | [3] | [4] | [5] | [6] | [7]

B2: TMEL1012 (antibody, V domains shown)
VH: PLQLQESGPGLVKPSETLSLTCTVSGDSITTTYYWGWIRQPPGKGLEWIASIYFTGSTFHNPSLKSRVTMSVDTSKNQFSLNLSSVTAADTAVYYCARRVGNWNYVWFDPWGQGTLVSVSS
VL: AYVLTQPPSVSVAPGQTARMTCGGNNIGSKSVHWYRQRPGQAPVLVVYDDTDRPSGIPERFSGSNSGNTATLTISRVEAGDEADYYCQVWDTNSDHVVFGGGTKLTVLG
no binding (tested: 1 µg/ml): [1] | [2] | [3] | [4] | [5] | [6] | [7]

B3: TMEL1004 (antibody, V domains shown)
VH: QITLKESGPTLVKPTQTLTLTCTFSGFSLNTPGVGVGWIRQPPGKALEWLALIYWDDDKRYRPSLESRLTITKDTSKNHVVLTMTNMDPVDTATYFCAHKNLQYSEWFDPWGQGTLVIVSS
VL: EMVLTQSPATLSLSPGERATLSCRASQSVSRNSLAWYQQRPGQTPRLLIYGASSRATGIPDRFSGSGSGTDFTLIISRLEPEDFAVYFCLQYDESPYTFGQGAKLEIKR
no binding (tested: 1 µg/ml): [1] | [2] | [3] | [4] | [5] | [6] | [7]
